In article PMC4442108, “Preclinical Validation of the Heparin-Reactive Peptide p5+14 as a Molecular Imaging Agent for Visceral Amyloidosis” (Molecules, 2015):
One block for each molecule: values may come before it. Where no end group is shown, it is not given here. The star is where a group is joined. 125I = [125I]*

Experiments:
[1] = Dynamic PET/CT pharmacokinetics of 124I-p5+14 in WT mice; assay type: in vivo, mouse (WT); details: post injection
Description: Dynamic PET imaging required radioiodination of the peptide with positron emitter, Iodine-124 (^124I; IBA Molecular, Sterling, WV, USA). Peptide p5+14 was radiolabeled using the Iodogen (Piercechemical, Rockford, IL, USA) oxidation method, as described. Briefly, 10 µL of 0.5 M NaPO4 buffer pH 7.6 was added to a 1.5 mL microcentrifuge tube followed by addition of ~50 µL of ^124I (~2 mCi). One µL of 2 mg/mL fresh ascorbic acid solution in phosphate buffered saline (PBS) was added to ensure complete reduction of ^124I-iodine. Approximately 25 µL (~50 µg) of peptide dissolved in distilled H2O was mixed with ~75 µL of PBS and added to the reaction mixture. Seven µL of 1 mg/mL Iodogen dissolved in acetonitrile was added to initiate the reaction. After 2 min, the reaction was quenched by addition of 50 µL of 2 mg/mL ascorbic acid. Twenty µL of blue dextran and 50 µL of filtered (0.2 µm pore sized) 0.1% gelatin in PBS were added to the reaction mixture. Radiolabeled product was separated from free ^124I by size exclusion chromatography as described above. Fractions were manually collected as the blue dextran marker reached the base of the column and the radioactivity in each measured using a dose calibrator (Capintec, Model 15, Ramsey, NJ, USA) set for ^124I detection. Peak fractions were pooled for use in the study, and radiopurity was assessed as described above. […]

[2] = Solution stability (stated, unpublished data); assay type: physicochemical; details: Wall and Kennel
[3] = target: synthetic amyloid fibrils of recombinant human λ6 light chain variable domain of patient Wil (rVλ6Wil) (human); assay: ELISA; EuLISA: rVλ6Wil fibrils coated and dried on NUNC Maxisorb wells (8 µg/mL, 50 µL, overnight 37 °C), blocked with 1% BSA; biotinylated p5+14 1 x 10^-10 to 1 x 10^-6 M, 1 h at 37 °C, PBS with 0.05% Tween 20; europium/streptavidin detection; n = 3
[4] = target: synthetic amyloid fibrils of recombinant human λ6 light chain variable domain of patient Wil (rVλ6Wil) (human); assay: co-sedimentation; peptide binding assay with rVλ6Wil fibrils in suspension in 10 mM phosphate buffer (pH 7.6) containing 0.15 (PBS), 0.25, 0.5, 1.0 or 2.0 M NaCl; bound peptide as % total counts added; n = 2
[5] = target: synthetic amyloid fibrils of recombinant human λ6 light chain variable domain of patient Wil (rVλ6Wil) (human); assay: co-sedimentation; ex vivo amyloid binding assay: 25 µL of 1 mg/mL synthetic rVλ6Wil fibrils resuspended in 200 µL PBS with 0.05% Tween-20, ~5 ng 125I-p5+14 added, rotated at RT for 1 h, centrifuged twice at 15,000 x g; % of counts in the pellet

time to clearance from healthy organs [1]: ≤ 2 h
solution stability relative to p5 [2]: greater solution stability
Molecule: GGGYSKAQKAQAKQAKQAQKAQKAQAKQAKQAQKAQKAQAKQAKQ [p5+14]

EC50 [3]: 15 nM
Molecule: C(maleimide‑biotin)GGGYSKAQKAQAKQAKQAQKAQKAQAKQAKQAQKAQKAQAKQAKQ [biotinylated p5+14 (with a cysteine residue at the N-terminal)]

% bound at 2 M NaCl [4]: 20%
% bound at the lowest NaCl concentration (0.15 M) [4]: 95%
NaCl concentration at half-maximal loss of binding (printed as EC50) [4]: 1 M
% bound [5]: 95.7%
Molecule: GGGY(125I)SKAQKAQAKQAKQAQKAQKAQAKQAKQAQKAQKAQAKQAKQ [125I-p5+14 (radioiodinated peptide p5+14)]
